Data as given in paper PMC10164591, “RNA binding proteins Smaug and Cup induce CCR4–NOT-dependent deadenylation of the nanos mRNA in a reconstituted system”.

Legend:
[1] = molecular target: T1, His8-MBP-Cup M (Drosophila melanogaster, UniProt Q9VMA3 418-770); test: UV crosslinking + Ni-NTA pull-down; 6 M urea wash; UV crosslinking: 16 mM HEPES pH 7.6, 50 mM K acetate, 1 mM Mg acetate, 0.8 mM ATP, 0.24 mg/ml yeast tRNA, 1 mM DTT, 10% glycerol, room temp; EMSA: deadenylation buffer with tRNA (omitted for A70 PABPC), 5% glycerol, 25 C; conditions: protein: recombinant; tags: N-terminal His8-MBP; label: 5'-32P
T1 sequence: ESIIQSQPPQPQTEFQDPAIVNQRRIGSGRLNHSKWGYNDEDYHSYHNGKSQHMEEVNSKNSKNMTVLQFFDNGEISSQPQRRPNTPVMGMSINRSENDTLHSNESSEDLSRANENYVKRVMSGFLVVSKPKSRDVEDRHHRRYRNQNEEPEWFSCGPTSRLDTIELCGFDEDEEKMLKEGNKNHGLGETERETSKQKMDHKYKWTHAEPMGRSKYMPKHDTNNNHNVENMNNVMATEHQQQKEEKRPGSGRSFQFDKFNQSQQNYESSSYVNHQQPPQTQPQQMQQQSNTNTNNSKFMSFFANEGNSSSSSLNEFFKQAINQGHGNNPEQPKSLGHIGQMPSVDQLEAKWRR

[2] = molecular target: T2, His8-MBP-Cup C (Drosophila melanogaster, UniProt Q9VMA3 771-1117); test: as above; conditions: protein: recombinant; tags: N-terminal His8-MBP; label: 5'-32P
T2 sequence: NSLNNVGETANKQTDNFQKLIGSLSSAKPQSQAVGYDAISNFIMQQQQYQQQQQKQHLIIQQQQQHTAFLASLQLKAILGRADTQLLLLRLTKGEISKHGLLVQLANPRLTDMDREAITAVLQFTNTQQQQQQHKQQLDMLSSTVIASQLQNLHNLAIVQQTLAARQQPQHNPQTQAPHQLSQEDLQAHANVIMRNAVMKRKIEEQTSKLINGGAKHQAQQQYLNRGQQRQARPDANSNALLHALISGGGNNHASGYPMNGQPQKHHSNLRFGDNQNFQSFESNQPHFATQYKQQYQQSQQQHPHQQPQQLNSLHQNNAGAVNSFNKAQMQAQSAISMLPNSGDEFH

[3] = molecular target: T3, His8-MBP-Cup full length (Drosophila melanogaster, UniProt Q9VMA3 1-1117); test: as above; conditions: protein: recombinant; tags: N-terminal His8-MBP; label: 5'-32P
T3 sequence: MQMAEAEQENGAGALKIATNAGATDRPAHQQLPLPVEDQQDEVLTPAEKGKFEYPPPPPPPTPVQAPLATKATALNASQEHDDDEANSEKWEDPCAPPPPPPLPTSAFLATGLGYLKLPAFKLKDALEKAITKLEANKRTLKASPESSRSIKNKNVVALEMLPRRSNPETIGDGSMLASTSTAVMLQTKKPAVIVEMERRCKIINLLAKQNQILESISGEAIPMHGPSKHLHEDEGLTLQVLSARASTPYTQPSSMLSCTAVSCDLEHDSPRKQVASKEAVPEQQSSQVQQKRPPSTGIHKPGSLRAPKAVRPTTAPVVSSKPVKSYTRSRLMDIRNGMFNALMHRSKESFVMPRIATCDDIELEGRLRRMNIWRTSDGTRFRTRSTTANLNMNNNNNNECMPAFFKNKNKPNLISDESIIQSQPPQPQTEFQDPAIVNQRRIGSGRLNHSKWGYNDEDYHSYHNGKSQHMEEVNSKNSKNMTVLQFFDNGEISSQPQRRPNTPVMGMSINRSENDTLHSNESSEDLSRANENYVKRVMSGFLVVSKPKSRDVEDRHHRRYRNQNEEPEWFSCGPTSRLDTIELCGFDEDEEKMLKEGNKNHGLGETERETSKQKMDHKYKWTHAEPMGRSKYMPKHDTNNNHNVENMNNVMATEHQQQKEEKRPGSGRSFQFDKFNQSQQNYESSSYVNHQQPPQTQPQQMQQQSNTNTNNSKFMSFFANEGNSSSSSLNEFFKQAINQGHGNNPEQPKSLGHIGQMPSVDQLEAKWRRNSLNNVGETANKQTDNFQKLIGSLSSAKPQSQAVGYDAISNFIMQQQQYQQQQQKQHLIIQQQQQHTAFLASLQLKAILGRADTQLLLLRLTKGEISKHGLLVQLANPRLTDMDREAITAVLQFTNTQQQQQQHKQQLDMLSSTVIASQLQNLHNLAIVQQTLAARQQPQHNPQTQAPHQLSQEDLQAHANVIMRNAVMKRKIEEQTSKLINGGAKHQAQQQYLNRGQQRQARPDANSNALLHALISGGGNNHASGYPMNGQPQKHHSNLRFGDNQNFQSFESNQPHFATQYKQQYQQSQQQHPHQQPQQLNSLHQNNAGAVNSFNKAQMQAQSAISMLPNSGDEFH

[4] = molecular target: T4, His8-MBP-Cup MC (Drosophila melanogaster, UniProt Q9VMA3 418-1117); test: as above; conditions: protein: recombinant; tags: N-terminal His8-MBP; label: 5'-32P
T4 sequence: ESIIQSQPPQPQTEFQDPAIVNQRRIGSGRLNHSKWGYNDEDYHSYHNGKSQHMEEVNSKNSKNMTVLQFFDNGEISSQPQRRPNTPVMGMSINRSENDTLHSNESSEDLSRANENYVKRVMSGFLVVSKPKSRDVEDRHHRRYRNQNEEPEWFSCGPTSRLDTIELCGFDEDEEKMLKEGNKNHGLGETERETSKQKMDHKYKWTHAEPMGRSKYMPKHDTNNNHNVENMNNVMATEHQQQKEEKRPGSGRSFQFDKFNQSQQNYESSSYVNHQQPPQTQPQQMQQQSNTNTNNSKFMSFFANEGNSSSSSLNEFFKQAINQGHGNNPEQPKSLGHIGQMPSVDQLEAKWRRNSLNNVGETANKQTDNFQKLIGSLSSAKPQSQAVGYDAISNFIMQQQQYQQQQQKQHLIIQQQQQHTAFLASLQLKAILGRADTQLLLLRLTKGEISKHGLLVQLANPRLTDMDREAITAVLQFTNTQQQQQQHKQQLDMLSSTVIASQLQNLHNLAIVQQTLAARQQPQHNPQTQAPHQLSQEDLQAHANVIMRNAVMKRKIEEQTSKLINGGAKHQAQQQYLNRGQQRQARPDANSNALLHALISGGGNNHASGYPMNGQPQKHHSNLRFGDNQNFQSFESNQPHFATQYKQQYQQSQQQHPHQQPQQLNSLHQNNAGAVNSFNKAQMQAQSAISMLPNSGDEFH

[5] = molecular target: T5, MBP-Cup MC (Drosophila melanogaster, UniProt Q9VMA3 418-1117); test: UV crosslinking; UV crosslinking: 16 mM HEPES pH 7.6, 50 mM K acetate, 1 mM Mg acetate, 0.8 mM ATP, 0.24 mg/ml yeast tRNA, 1 mM DTT, 10% glycerol, room temp; EMSA: deadenylation buffer with tRNA (omitted for A70 PABPC), 5% glycerol, 25 C; conditions: protein: recombinant; tags: N-terminal MBP; label: 5'-32P
T5 sequence: T4 sequence

[6] = molecular target: T6, MBP-Cup C (Drosophila melanogaster, UniProt Q9VMA3 771-1117); test: as above; conditions: protein: recombinant; tags: N-terminal MBP; label: 5'-32P
T6 sequence: T2 sequence

[7] = molecular target: T7, MBP-Cup NM (Drosophila melanogaster, UniProt Q9VMA3 1-770); test: as above; conditions: protein: recombinant; tags: N-terminal MBP; label: 5'-32P
T7 sequence: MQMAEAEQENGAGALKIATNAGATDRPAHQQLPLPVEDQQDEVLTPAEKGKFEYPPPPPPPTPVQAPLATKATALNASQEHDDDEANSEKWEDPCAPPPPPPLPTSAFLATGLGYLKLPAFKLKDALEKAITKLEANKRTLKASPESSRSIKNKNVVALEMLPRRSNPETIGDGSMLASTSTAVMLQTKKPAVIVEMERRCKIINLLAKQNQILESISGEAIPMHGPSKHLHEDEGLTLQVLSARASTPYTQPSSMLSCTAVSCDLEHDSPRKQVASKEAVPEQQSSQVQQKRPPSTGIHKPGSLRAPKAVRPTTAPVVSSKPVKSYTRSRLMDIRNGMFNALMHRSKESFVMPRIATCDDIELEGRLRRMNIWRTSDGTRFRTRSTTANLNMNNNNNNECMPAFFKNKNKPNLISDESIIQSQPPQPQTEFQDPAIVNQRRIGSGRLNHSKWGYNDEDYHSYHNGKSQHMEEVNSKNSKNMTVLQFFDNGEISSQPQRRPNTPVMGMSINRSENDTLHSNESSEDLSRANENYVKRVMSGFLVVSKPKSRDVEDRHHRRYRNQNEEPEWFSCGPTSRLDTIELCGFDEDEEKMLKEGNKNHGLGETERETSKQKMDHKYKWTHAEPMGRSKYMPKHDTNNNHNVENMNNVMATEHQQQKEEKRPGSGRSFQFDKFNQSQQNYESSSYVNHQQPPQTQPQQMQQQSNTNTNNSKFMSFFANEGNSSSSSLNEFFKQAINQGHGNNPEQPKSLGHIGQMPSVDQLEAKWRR

[8] = molecular target: T8, MBP-Cup N (Drosophila melanogaster, UniProt Q9VMA3 1-417); test: as above; conditions: protein: recombinant; tags: N-terminal MBP; label: 5'-32P
T8 sequence: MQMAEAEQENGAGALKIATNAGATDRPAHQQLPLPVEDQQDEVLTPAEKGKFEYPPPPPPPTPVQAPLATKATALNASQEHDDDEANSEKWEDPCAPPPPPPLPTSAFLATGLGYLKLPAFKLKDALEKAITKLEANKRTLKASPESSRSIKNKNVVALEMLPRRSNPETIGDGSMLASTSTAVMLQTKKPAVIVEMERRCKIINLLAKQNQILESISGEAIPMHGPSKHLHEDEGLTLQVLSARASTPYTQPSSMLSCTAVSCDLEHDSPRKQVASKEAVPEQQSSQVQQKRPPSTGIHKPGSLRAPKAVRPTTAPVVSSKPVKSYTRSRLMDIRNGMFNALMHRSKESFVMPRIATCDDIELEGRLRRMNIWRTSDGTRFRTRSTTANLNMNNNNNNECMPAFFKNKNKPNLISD

[9] = molecular target: T9, MBP-Cup M (Drosophila melanogaster, UniProt Q9VMA3 418-770); test: as above; conditions: protein: recombinant; tags: N-terminal MBP; label: 5'-32P
T9 sequence: T1 sequence

Measured: binding result

GGGUUUAGUGCGCACGUG (ssRNA) [18nt RNA oligonucleotide]
binds: all assays above
